Legend:
ACLY pHis peptide = experiment: BLI of pHis Fabs with phosphorylated ACLY peptide; format: binding; conditions: GpHAGAC motif
Protocol: Next, we turned to further analyze the peptide selectivity using BLI experiments. Nine amino acid peptide sequences from proteins known to undergo histidine phosphorylation were selected and synthesized (SI Appendix, Table S2). The biotinylated peptides ACLY, NM23, SCS, and Common-His were chemically phosphorylated using phosphoramidate (8 h at 23 °C), and affinity-purified using immobilized 1-pHis IgGs or 3-pHis IgGs, as described above. BLI signal intensity was used to assess peptide binding to the Fabs. […]
The binding kinetics of pHis Fabs with the peptides (pTza and pHis) were evaluated with an Octet RED96e (FortéBio). […] The biotinylated pTza peptides or pHis peptides (20 nM) with and without phosphoramidate treatment were coated onto these streptavidin biosensors and analyzed for their binding to varying concentrations of the pHis Fabs with an association time of 120 s and dissociation time of 200 s. […] The data were analyzed using the Octet software (FortéBio) and the rates of association and dissociation were obtained by global fitting data to the 1:1 Langmuir interaction model. […]
(§1) 1H NMR of ACLYana peptide. A mixture of 5 mM ACLYana peptide and 250 mM phosphoramidate in 20 mM d18-Hepes, pH 8.0, 50 mM NaCl in D2O was incubated at 23 °C and monitored over the course of 29 h. […]

Common-His pHis peptide = experiment: BLI of pHis Fabs with phosphorylated Common-His peptide; format: binding
Protocol: Next, we turned to further analyze the peptide selectivity using BLI experiments. Nine amino acid peptide sequences from proteins known to undergo histidine phosphorylation were selected and synthesized (SI Appendix, Table S2). The biotinylated peptides ACLY, NM23, SCS, and Common-His were chemically phosphorylated using phosphoramidate (8 h at 23 °C), and affinity-purified using immobilized 1-pHis IgGs or 3-pHis IgGs, as described above. BLI signal intensity was used to assess peptide binding to the Fabs. SC1-1, SC50-3, SC39-4, and SC56-2 had signal intensities in 0.5 to 1 nm for the association (SI Appendix, Fig. S10), whereas SC44-8 had maximum signal (2.0 nm) with ACLYana, which has GpHAGAG motif, and a signal of 0.5 nm for ACLY and SCS peptides, which have GpHAGAC and GpHAGAI motifs, respectively. However, there was no signal with NM23 and Common-His peptides, which lack this motif (SI Appendix, Fig. S10D). […] The binding kinetics of the pHis Fabs with this set of peptides indicate that the affinity values are similar for the pHis Fabs SC50-3, SC39-4, and SC56-2, consistent with them binding in a sequence-independent manner.
The binding kinetics of pHis Fabs with the peptides (pTza and pHis) were evaluated with an Octet RED96e (FortéBio). Streptavidin-coated biosensors (FortéBio) were presoaked in buffer containing 50 mM Hepes pH 8.0, 150 mM NaCl, 0.05% Tween-20, and 0.2% BSA for 15 min. The biotinylated pTza peptides or pHis peptides (20 nM) with and without phosphoramidate treatment were coated onto these streptavidin biosensors and analyzed for their binding to varying concentrations of the pHis Fabs with an association time of 120 s and dissociation time of 200 s. The entire set of experiments was repeated three times. The data were analyzed using the Octet software (FortéBio) and the rates of association and dissociation were obtained by global fitting data to the 1:1 Langmuir interaction model. […]
Peptides used in the DSF and BLI experiments were synthesized by the Salk Peptide Synthesis Core. These peptides were N-terminally biotinylated and C-terminally amidated. They were synthesized using standard Fmoc chemistry on a Gyros Protein Technologies Tribute peptide synthesizer with UV monitoring. […]
Phosphoramidation reaction. The small molecule phosphate donor phosphoramidate was used to phosphorylate the peptides containing His (Table S2). Phosphoramidate was synthesized based on Wei and Matthew’s method (2) and stored in a desiccator. 20 nanomoles of peptides were added to one micromole of the phosphoramidate in 50 mM Hepes pH 8.0 and 150 mM NaCl buffer. […]
as §1

[1] = BLI, phosphorylated, affinity-purified Common-His peptide, Table S7

B1: SC44-8: Fab of rabbit 3-pHis-specific monoclonal antibody with proclivity for GpHAGA motif (antibody, V domains shown)
VH: QSVKESGRGLVQPGGSLTLTCTASGFSIDSYGFSWVRQAPGKGLEHIGYLTAGGRAFYASWAKSRSTITRNTNENTVTLKMTSLTAADTATYFCAKLGSGNPVAIWGPGTLVTVSS
VL: QVLTQTPSFTSAAVGGTVTINCQSSQSVWRNKNLAWYQQKPGQPPKRLIYAIATLDSGVPSRFSGSGSGTQFTLTISDVQCDDAATYYCVGHYGSENDAYYAFGGGTEVVVK
BLI signal with ACLY peptide (ACLY pHis peptide): 0.5 nm
KD (Common-His pHis peptide; BLI, biotinylated Common-His peptide phosphorylated with phosphoramidate (8 h at 23 °C), affinity-purified on 1-pHis or 3-pHis IgGs (cognate isomer), Table S7): No binding
ka (Common-His pHis peptide; [1]): No binding
kd (Common-His pHis peptide; [1]): No binding
BLI signal with Common-His peptide (Common-His pHis peptide; phosphorylated Common-His, lacks GpHAGA motif): no signal

Source: article PMC8017925, “Structural basis for differential recognition of phosphohistidine-containing peptides by 1-pHis and 3-pHis monoclonal antibodies” (Proceedings of the National Academy of Sciences of the …, 2021)
